In patent US20230193513A1 (TWIST BIOSCIENCE, published 2023):
Substitutions are numbered along the chain they refer to.

How the values were obtained:
Experiment in all cases: cell-based or functional assay
[1] = target: T1, glucagon-like peptide-1 receptor (GLP1R) (Homo sapiens (Human), UniProt P43220 24-463)
[2] = target: T1, glucagon-like peptide-1 receptor (GLP1R); remark: listed apart in the source
[3] = target: T1, glucagon-like peptide-1 receptor (GLP1R); remark: listed apart in the source
[4] = target: T1, glucagon-like peptide-1 receptor (GLP1R); remark: listed apart in the source

T1 sequence (P43220 24-463): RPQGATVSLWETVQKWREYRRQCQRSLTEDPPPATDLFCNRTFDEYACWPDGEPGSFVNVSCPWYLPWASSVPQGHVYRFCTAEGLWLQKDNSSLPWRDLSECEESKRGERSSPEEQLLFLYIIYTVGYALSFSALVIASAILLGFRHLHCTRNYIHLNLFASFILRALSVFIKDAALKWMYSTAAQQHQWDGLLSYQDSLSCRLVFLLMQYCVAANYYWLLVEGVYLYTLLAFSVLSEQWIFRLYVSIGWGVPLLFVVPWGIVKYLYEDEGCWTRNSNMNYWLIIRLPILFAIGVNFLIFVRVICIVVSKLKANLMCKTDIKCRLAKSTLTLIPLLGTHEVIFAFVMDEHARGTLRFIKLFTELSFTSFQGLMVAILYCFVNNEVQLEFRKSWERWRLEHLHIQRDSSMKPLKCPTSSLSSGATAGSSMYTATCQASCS

B1: GLP1R-243 (antibody, human IgG2, lambda, V domains shown)
VH: QVQLVQSGAEVKKPGSSVKVSCKASGGTFSTYGINWVRQAPGQGLEWMGGIIPIFGTANYAQKFQGRVTITADESTSTAYMELSSLRSEDTAVYYCARANQHFFGKGDNLAARDFINWLIQTKITDGSNPGYHYYGMDVWGQGTLVTVSS
VL: QSVLTQPPSVSAAPGQKVTISCSGSRSNIGKNYVSWYQQLPGTAPKLLIYENNERPSGIPDRFSGSKSGTSATLGITGLQTGDEADYYCSSYTTSNTQVFGGGTKLTVLG
[1]
  EC50 (nM) of GLP1 (7-36) in the cAMP assay after 100 nM IgG: 0.128 nM

B2: GLP1R-59-2 (antibody)
chain 1: QVQLVESGGGVVQPGRSLRLSCAASGFTFSNYGMSWVRQAPGKGLEWVAVISYDAGNKYYADSVKGRFTISRDNSKNTLYLQMNSLRAEDTAVYYCARDMYYDFETVVEGIQWYEALKAGKLGEVVPADDAFDIWGQGTLVTVSSASTKGPSVFPLAPCSRSTSESTAALGCLVKDYFPEPVTVSWNSGALTSGVHTFPAVLQSSGLYSLSSVVTVPSSNFGTQTYTCNVDHKPSNTKVDKTVERKCCVECPPCPAPPVAGPSVFLFPPKPKDTLMISRTPEVTCVVVDVSHEDPEVQFNWYVDGVEVHNAKTKPREEQFNSTFRVVSVLTVVHQDWLNGKEYKCKVSNKGLPAPIEKTISKTKGQPREPQVYTLPPSREEMTKNQVSLTCLVKGFYPSDIAVEWESNGQPENNYKTTPPMLDSDGSFFLYSKLTVDKSRWQQGNVFSCSVMHEALHNHYTQKSLSLSPGK
chain 2: HGEGTFTSDVSSYLEEQAAKEFIAWLVKGGGGGGGSGGGGSGGGGSQSALTQPASVSGSPGQSITISCTGTSNDIGTYNYVSWYQQHPGKAPKLMIYDVSGRPSGVSNRFSGSKSGNTASLTISGLQAEDEADYYCSSYTTSSTEVFGGGTKLTVLGQPKAAPSVTLFPPSSEELQANKATLVCLISDFYPGAVTVAWKADSSPVKAGVETTTPSKQSNNKYAASSYLSLTPEQWKSHRSYSCQVTHEGSTVEKTVAPTECS
[2]
  EC50 (nM) of the IgG as agonist, functional assay on GLP-1R overexpressing cells: 0.842 nM

B3: GLP1R-238 (antibody, human IgG2, lambda, V domains shown)
VH: QVQLVQSGAEVKKPGSSVKVSCKASGGSFSSHAISWVRQAPGQGLEWMGGIIPIFGAPNYAQKFQGRVTITADESTSTAYMELSSLRSEDTAVYYCARANQHFSQAGRAARVPGPSSSLGPRGYHYYGMDVWGQGTLVTVSS
VL: QSVLTQPPSVSAAPGQKVTISCSGSTSNIANNYVSWYQQLPGTAPKLLIYANNRRPSGIPDRFSGSKSGTSATLGITGLQTGDEADYYCGAWDVRLDVGVFGGGTKLTVLG
[1]
  EC50 (nM) of GLP1 (7-36) in the cAMP assay after 100 nM IgG: 0.0879 nM

B4: GLP1R-239 (antibody, human IgG2, lambda)
heavy: QVQLVESGGGVVQPGRSLRLSCAASGFDFSNYGMHWVRQAPGKGLEWVADISYEGSNKYYADSVKGRFTISRDNSKNTLYLQMNSLRAEDTAVYYCAKHMSMQSQGLDNLAARDFINWLIQTKITDGFELSRADLVGDAFDVWGQGTLVTVSSASASTKGPSVFPLAPCSRSTSESTAALGCLVKDYFPEPVTVSWNSGALTSGVHTFPAVLQSSGLYSLSSVVTVPSSNFGTQTYTCNVDHKPSNTKVDKTVERKCCVECPPCPAPPVAGPSVFLFPPKPKDTLMISRTPEVTCVVVDVSHEDPEVQFNWYVDGVEVHNAKTKPREEQFNSTFRVVSVLTVVHQDWLNGKEYKCKVSNKGLPAPIEKTISKTKGQPREPQVYTLPPSREEMTKNQVSLTCLVKGFYPSDIAVEWESNGQPENNYKTTPPMLDSDGSFFLYSKLTVDKSRWQQGNVFSCSVMHEALHNHYTQKSLSLSPG
light: QSVLTQPPSVSAAPGQKVTISCSGSTSNIEKNYVSWYQQLPGTAPKLLIYGNDQRPSGIPDRFSGSKSGTSATLGITGLQTGDEADYYCGTWENRLSAVVFGGGTKLTVLGQPKAAPSVTLFPPSSEELQANKATLVCLISDFYPGAVTVAWKADSSPVKAGVETTTPSKQSNNKYAASSYLSLTPEQWKSHRSYSCQVTHEGSTVEKTVAPTECS
[1]
  EC50 (nM) of GLP1 (7-36) in the cAMP assay after 100 nM IgG: 0.0799 nM

B5: GLP1R-242 (antibody, human IgG2, lambda)
heavy: QVQLVQSGAEVKKPGSSVKVSCKASGGTFSSYEISWVRQAPGQGLEWMGGIIPILGIANYAQKFQGRVTITADESTSTAYMELSSLRSEDTAVYYCAKHMSMQADTGTFTSDVSSYLEGQAAKEFIAWLVKGEFSSRADLVGDAFDVWGQGTLVTVSSASASTKGPSVFPLAPCSRSTSESTAALGCLVKDYFPEPVTVSWNSGALTSGVHTFPAVLQSSGLYSLSSVVTVPSSNFGTQTYTCNVDHKPSNTKVDKTVERKCCVECPPCPAPPVAGPSVFLFPPKPKDTLMISRTPEVTCVVVDVSHEDPEVQFNWYVDGVEVHNAKTKPREEQFNSTFRVVSVLTVVHQDWLNGKEYKCKVSNKGLPAPIEKTISKTKGQPREPQVYTLPPSREEMTKNQVSLTCLVKGFYPSDIAVEWESNGQPENNYKTTPPMLDSDGSFFLYSKLTVDKSRWQQGNVFSCSVMHEALHNHYTQKSLSLSPG
light: B4 light with T26S, K31N, Y33D, E93D, R95T, V99G
[1]
  EC50 (nM) of GLP1 (7-36) in the cAMP assay after 100 nM IgG: ~0.0653 nM

B6: GLP1R-241 (antibody, human IgG2, lambda)
heavy: QVQLVQSGAEVKKPGSSVKVSCKASGGTFSDYAISWVRQAPGQGLEWMGGIIPIFGTTNYAQKFQGRVTITADESTSTAYMELSSLRSEDTAVYYCAKHMSMQGSVAGGTFTSDVSSYLEGQAAKEFIAWLVKGGPSFIRADLVGDAFDVWGQGTLVTVSSASASTKGPSVFPLAPCSRSTSESTAALGCLVKDYFPEPVTVSWNSGALTSGVHTFPAVLQSSGLYSLSSVVTVPSSNFGTQTYTCNVDHKPSNTKVDKTVERKCCVECPPCPAPPVAGPSVFLFPPKPKDTLMISRTPEVTCVVVDVSHEDPEVQFNWYVDGVEVHNAKTKPREEQFNSTFRVVSVLTVVHQDWLNGKEYKCKVSNKGLPAPIEKTISKTKGQPREPQVYTLPPSREEMTKNQVSLTCLVKGFYPSDIAVEWESNGQPENNYKTTPPMLDSDGSFFLYSKLTVDKSRWQQGNVFSCSVMHEALHNHYTQKSLSLSPG
light: B4 light with S25I, T26S, E30G, K31N, G51D, N52D, E93D, R95I, V99A
[3]
  fold difference of the EC50 against no antibody: 1.7 fold
[1]
  EC50 (nM) of GLP1 (7-36) in the cAMP assay after 100 nM IgG: 0.103 nM
[4]
  EC50 (nM) of GLP1 (7-36)-induced signaling with GLP1R IgG (+100 nM): 0.103 nM

B7: GLP1R-244 (antibody, human IgG2, lambda, V domains shown)
VH: QVQLVQSGAEVKKPGSSVKVSCKASGGTFSSYAISWVRQAPGQGLEWMGGIIPIFGTANYAQKFQGRVTITADESTSTAYMELSSLRSEDTAVYYCARANQHFAATGAGEGQAAKEFIAWLVKGRVEIGYHYYGMDVWGQGTLVTVSS
VL: QSVLTQPPSVSAAPGQKVTISCSGSSSNIGNNVVSWYQQLPGTAPKLLIYDNDKRRSGIPDRFSGSKSGTSATLGITGLQTGDEADYYCGSWDTSLSVWVFGGGTKLTVLG
[1]
  EC50 (nM) of GLP1 (7-36) in the cAMP assay after 100 nM IgG: 0.154 nM

B8: GLP1R-240 (antibody, human IgG2, lambda)
heavy: QVQLVQSGAEVKKPGSSVKVSCKASGGTFNNYGISWVRQAPGQGLEWMGGIIPVFGTANYAQKFQGRVTITADESTSTAYMELSSLRSEDTAVYYCARDMYYDFFGLGTFTSDVSSYLEGQAAKEFIAWLVKGVSPEVVPADDAFDIWGQGTLVTVSSASASTKGPSVFPLAPCSRSTSESTAALGCLVKDYFPEPVTVSWNSGALTSGVHTFPAVLQSSGLYSLSSVVTVPSSNFGTQTYTCNVDHKPSNTKVDKTVERKCCVECPPCPAPPVAGPSVFLFPPKPKDTLMISRTPEVTCVVVDVSHEDPEVQFNWYVDGVEVHNAKTKPREEQFNSTFRVVSVLTVVHQDWLNGKEYKCKVSNKGLPAPIEKTISKTKGQPREPQVYTLPPSREEMTKNQVSLTCLVKGFYPSDIAVEWESNGQPENNYKTTPPMLDSDGSFFLYSKLTVDKSRWQQGNVFSCSVMHEALHNHYTQKSLSLSPG
light: QSVLTQPPSVSAAPGQKVTISCSGSSSSIGNNYVSWYQQLPGTAPKLLIYANNKRPSGIPDRFSGSKSGTSATLGITGLQTGDEADYYCATWSSSPRGWVFGGGTKLTVLGQPKAAPSVTLFPPSSEELQANKATLVCLISDFYPGAVTVAWKADSSPVKAGVETTTPSKQSNNKYAASSYLSLTPEQWKSHRSYSCQVTHEGSTVEKTVAPTECS
[1]
  EC50 (nM) of GLP1 (7-36) in the cAMP assay after 100 nM IgG: 0.0654 nM
